Results as given in patent US20170137467A1 (CHROMOTEK, published 2017).
Where a chain is given by its changes, count along the chain named. Each block holds one binder with its values, some of them ahead of it. Square brackets hold non-standard residues; d marks the D form. GABA = NCCCC(=O)O

How the values were obtained:
Test in all cases: positional peptide library pulldown on immobilised Nb, LC-MS of supernatant; signal ratio to control GFP-Nb (1 = not captured, near 0 = captured)
BC2T R3F = biological target: T1, BC2T R3F
T1 construct: positional scanning library member
T1 peptide: Ac-PDFKAAVSHWQQ-NH2
Summary of the method: (§1)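 Unbound peptide left in supernatant after 1 h pulldown in PBS/0.01% CHAPS measured by reversed-phase LC-MS (8–30% eluent B gradient, 20 min).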

BC2T K4F = biological target: T2, BC2T K4F
T2 construct: positional scanning library member
T2 peptide: Ac-PDRFAAVSHWQQ-NH2
Summary of the method: as §1

BC2T P1W = biological target: T3, BC2T P1W
T3 construct: positional scanning library member
T3 peptide: Ac-WDRKAAVSHWQQ-NH2
Summary of the method: as §1

BC2T A5W = biological target: T4, BC2T A5W
T4 construct: positional scanning library member
T4 peptide: Ac-PDRKWAVSHWQQ-NH2
Summary of the method: as §1

BC2T V7W = biological target: T5, BC2T V7W
T5 construct: positional scanning library member
T5 peptide: Ac-PDRKAAWSHWQQ-NH2
Summary of the method: as §1

BC2T K4S = biological target: T6, BC2T K4S
T6 construct: positional scanning library member
T6 peptide: Ac-PDRSAAVSHWQQ-NH2
Summary of the method: as §1

BC2T A6T = biological target: T7, BC2T A6T
T7 construct: positional scanning library member
T7 peptide: Ac-PDRKATVSHWQQ-NH2
Summary of the method: as §1

BC2T D2N = biological target: T8, BC2T D2N
T8 construct: positional scanning library member
T8 peptide: Ac-PNRKAAVSHWQQ-NH2
Summary of the method: as §1

BC2T K4N = biological target: T9, BC2T K4N
T9 construct: positional scanning library member
T9 peptide: Ac-PDRNAAVSHWQQ-NH2
Summary of the method: as §1

BC2T K4Q = biological target: T10, BC2T K4Q
T10 construct: positional scanning library member
T10 peptide: Ac-PDRQAAVSHWQQ-NH2
Summary of the method: as §1

BC2T A5Q = biological target: T11, BC2T A5Q
T11 construct: positional scanning library member
T11 peptide: Ac-PDRKQAVSHWQQ-NH2
Summary of the method: as §1

BC2T D2Y = biological target: T12, BC2T D2Y
T12 construct: positional scanning library member
T12 peptide: Ac-PYRKAAVSHWQQ-NH2
Summary of the method: as §1

BC2T R3Y = biological target: T13, BC2T R3Y
T13 construct: positional scanning library member
T13 peptide: Ac-PDYKAAVSHWQQ-NH2
Summary of the method: as §1

BC2T P1C(Abu) = biological target: T14, BC2T P1C(Abu) (SMILES …)
T14 construct: positional scanning library member
T14 peptide: Ac-[GABA]DRKAAVSHWQQ-NH2
Summary of the method: as §1

BC2T D2C(Abu) = biological target: T15, BC2T D2C(Abu) (SMILES …)
T15 construct: positional scanning library member
T15 peptide: Ac-P[GABA]RKAAVSHWQQ-NH2
Summary of the method: as §1

BC2T R3C(Abu) = biological target: T16, BC2T R3C(Abu) (SMILES …)
T16 construct: positional scanning library member
T16 peptide: Ac-PD[GABA]KAAVSHWQQ-NH2
Summary of the method: as §1

BC2T A5C(Abu) = biological target: T17, BC2T A5C(Abu) (SMILES …)
T17 construct: positional scanning library member
T17 peptide: Ac-PDRK[GABA]AVSHWQQ-NH2
Summary of the method: as §1

BC2T R3H = biological target: T18, BC2T R3H
T18 construct: positional scanning library member
T18 peptide: Ac-PDHKAAVSHWQQ-NH2
Summary of the method: as §1

BC2T V7H = biological target: T19, BC2T V7H
T19 construct: positional scanning library member
T19 peptide: Ac-PDRKAAHSHWQQ-NH2
Summary of the method: as §1

BC2T V7D = biological target: T20, BC2T V7D
T20 construct: positional scanning library member
T20 peptide: Ac-PDRKAADSHWQQ-NH2
Summary of the method: as §1

BC2T W10D = biological target: T21, BC2T W10D
T21 construct: positional scanning library member
T21 peptide: Ac-PDRKAAVSHDQQ-NH2
Summary of the method: as §1

ratio (BC2T R3F): 1 | ratio (BC2T K4F): 0.6 | ratio (BC2T P1W): 0.2 | ratio (BC2T A5W): 0 | ratio (BC2T V7W): 0.2 | ratio (BC2T K4S): 0.6 | ratio (BC2T A6T): 0.3 | ratio (BC2T D2N): 0.2 | ratio (BC2T K4N): 0.8 | ratio (BC2T K4Q): 0.2 | ratio (BC2T A5Q): 0.2 | ratio (BC2T D2Y): 0.1 | ratio (BC2T R3Y): 0.9 | ratio (BC2T P1C(Abu)): 0.2 | ratio (BC2T D2C(Abu)): 0.2 | ratio (BC2T R3C(Abu)): 0.9 | ratio (BC2T A5C(Abu)): 0.1 | ratio (BC2T R3H): 0.5 | ratio (BC2T V7H): 0.3 | ratio (BC2T V7D): 0.9
B1: BC2-NbR106E (VHH)
VHH: QVQLVESGGGLVQPGGSLTLSCTASGFTLDHYDIGWFRQAPGKEREGVSCINNSDDDTYYADSVKGRFTIFMDNAKDTVYLQMNSLKPEDTAIYYCAEARGCKRGEYEYDFWGQGTQVTVSS
notes: headlock mutant of BC2-Nb; immobilised on beads in this assay

B2: BC2 nanobody (VHH)
VHH: B1 VHH with E106R
notes: immobilised on beads in this assay; also called BC2-Nb; BC2 nanotrap (immobilised)
ratio (BC2T W10D): 1
